Assay: yeast display, Sf9 membrane polyspecificity reagent, FACS + sequencing; frameworks hold sequencing errors
In short: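 Galactose-induced (36–48 hours) yeast carrying a synthetic nanobody display library were exposed to 10% biotinylated, detergent-solubilized Sf9 membrane reagent at 4 °C for 1 hour. FACS followed streptavidin microbead enrichment, using low and high (top ~1%) gates for expression (anti-HA) and reagent binding (streptavidin). Colony PCR, MiSeq 2 × 250 sequencing and CDR-length filtering followed. Labels for polyreactivity reflect the gate of origin.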

Row | Sequence | polyreactivity (PSR sort gate)
1 | QVQLVESGGGLVQAGGSLRLSCAASGRIFNYNVMGWYRQAPGKERELVASISYSSTRTYYADSVKGRFTISRDTAKNTVYLQMNSLKPEDTAVYYCNADYYFSSYRSTFDYWGQGTQVTVSS | low polyreactivity
2 | QVQLVESGGGLVQAGGSLRLSCAASGRIFNYYAMGWYRQAPGKEREFVAAITRSGGRTYYADSVKGRFTISRDNAKNTVYLQMNSLKPEDPAVYYCAAGRYVWREYYYWGQGTQVTVSS | high polyreactivity
3 | QVQLVESGGGLVQAGGSLRLSCAASGRIFNYYAMGWYRQAPGKERELVAAINSGGSTYADSVKGRFTISRDNAKNTVYLQMNSLKPEDTAVYYCAKDGQLQSVRERPSGYDHWGQGTQVTVSS | low polyreactivity
4 | QVQLVESGGGLVQAGGSLRLSCAASGRIFNYYAMGWYRQAPGKERELVAAISSGGITNYADSVKGRFTISRDNAKNTVYLQMNSLKPEDTAVYYCAADRSNRPYYRQGYDYWGQGTQVTVSS | high polyreactivity
5 | QVQLVESGGGLVQAGGSLRLSCAASGRIFPANDMGWYRQAPGKERELVASIRRGGITYADSVKGRFTISRDNAKNTVYLQMNSLKPEDNAVYYCNADYRGWGYHMDYWGQGTQVTVSS | low polyreactivity
6 | QVQLVESGGGLVQAGGSLRLSCAASGRIFPANVMGWYRQAPGKETELVAAITRGDSTNYADSVKGRFTISRDNAKNTVYLQMTSLKPEDTAVYYCAAYGRYLLWDYDYWGQGTQVTVSS | low polyreactivity
7 | QVQLVESGGGLVQAGGSLRLSCAASGRIFPAYAMGWYRQAPGKERELVAAITGGGSTNYADSVKGRFTISRDNAKNTVYLQMNSLKPEDTAVYYCNAVTGTYGWAPQAREQEDYWGQGTQVTVSS | low polyreactivity
8 | QVQLVESGGGLVQAGGSLRLSCAASGRIFPAYAMGWYRQAPGKEREWVASIRRGGITYADSVKGRFTISRDNAKNTVYLQMNSLKPEDTAVYYCNADYRGWGYHMDYWGQGTQVTVSS | low polyreactivity
9 | QVQLVESGGGLVQAGGSLRLSCAASGRIFPFYAMGWYRKAPGKERELVARITLSGGSTYYADSVKGRFTISRDNAKNTVYLQMNSLKPEDTAVYYCAADRTSWSVLDFDYWGQGTQVTVSS | low polyreactivity
10 | QVQLVESGGGLVQAGGSLRLSCAASGRIFPFYAMGWYRQAPGKERELVAAISRGGSTKYADSVKGRFTISRDNAKNTVYLQMKSLKPEDTAVYYCAAAGYGGSVAAYYYWGQGTQVTVSS | high polyreactivity
11 | QVQLVESGGGLVQAGGSLRLSCAASGRIFPFYAMGWYRQAPGKETELVAVINASGGGTYYADSVKGRFTISRDNAKNTVYLQMNSLKPEDTAVYYCAATYSPFDFYYWGQGTQVTVSS | low polyreactivity
12 | QVQLVESGGGLVQAGGSLRLSCAASGRIFPFYVMGWYRQAPGKERELVASIRGGGSTNYADSVKGRFTISRDNAKNTVYLQMNSLKPEDTAVYYCNAARRYRAPLYDYWGQGTQVTVSS | high polyreactivity
13 | QVQLVESGGGLVQAGGSLRLSCAASGRIFPHYAMGWYRQAPGKERELVAAISSGGRTNYADSVKGRFTISRDNAKNTVYLQMNSLKPEDTAVYYCARRYPGGYYWGQGTQVTVSS | high polyreactivity
14 | QVQLVESGGGLVQAGGSLRLSCAASGRIFPKYAMGWYRQAPGKERELVARISVRGGRTYYADSVKGRFTISRDNAKNTVYLQMNSLKPEDTAVYYCAAYTRPAYDYWGQGTQVTVSS | high polyreactivity
15 | QVQLVESGGGLVQAGGSLRLSCAASGRIFPSNTMGWYRQAPGKERELVADISFGGGSTYYADSVKGRFTISRDNAKNTVYLQMNSLKPEDTAVYYCNADFGFGYVSLLYEYWGQGTQVTVSS | low polyreactivity
16 | QVQLVESGGGLVQAGGSLRLSCAASGRIFPSYAMGWYRPAPGKERELVAAITRGSTTYYADSVKGRFTISRDNAKNTVYLQMNSLKPEDTAVYYCAAEENLAYYFKYYYWGQGTQVTVSS | low polyreactivity
17 | QVQLVESGGGLVQAGGSLRLSCAASGRIFPSYAMGWYRPAPGKERELVAAITWSGGSTYYAHSVKGRFTISRDNAKNTVYLLRNSLKPEDTAVYYCNRVERRGTYDYWGQGTQVSVSS | high polyreactivity
18 | QVQLVESGGGLVQAGGSLRLSCAASGRIFPTNAMGWYRQAPGKERELVASITRSGSTYYADSVKGRFTISRDNAKNTVYLQMNSLKPEDTAVYYCAAYAYIFLDWGGYPYYLYEYDYWGQGTQVTVSS | low polyreactivity
19 | QVQLVESGGGLVQAGGSLRLSCAASGRIFPTYAMGWYRQAPGKERELVASITSGVDTYYADSVKGRFTISRDNAKNTVYLQMNSLKPEDTAVYYCAARFFVWWKYDYWGQGTQVTVSS | low polyreactivity
20 | QVQLVESGGGLVQAGGSLRLSCAASGRIFPWYTMGWYRQAPGKERELVAAITSGGNTDYADSVKGRFTISRDNAKNTVYLQMNSLKPEDTAVYYCAAGGYPGTTYYGYDYWGQGTQVTVSS | low polyreactivity
21 | QVQLVESGGGLVQAGGSLRLSCAASGRIFPWYTMGWYRQAPGKERELVAVISSGGRTHYADSVKGRFTISRDNAKNTVYLQMNSLKPEDTAVYYCAAESRYQRYDYWGQGTQVTVSS | high polyreactivity
22 | QVQLVESGGGLVQAGGSLRLSCAASGRIFPYYAMGWSRQAPGKEREFVAAITKRGGSTSYADSVKGRFTISRDNAKNTVYLQMNSLKPQDTAVYYCNARLYRGQDRYDYWGQGTQVTVSS | low polyreactivity

Row | Sequence | polyreactivity (PSR sort gate)
23 | QVQLVESGGGLVQAGGSLRLSCAASGRIFPYYAMGWYRQAPGKEREFVAAITRRGTSTYYADSVKGRFTISRDNAKNTVYLQMNSLKPEDTAVYYCNKDIISLSRSYGYWGQGTQVTVSS | high polyreactivity
24 | QVQLVESGGGLVQAGGSLRLSCAASGRIFPYYAMGWYRQAPGKERELVAAISQSDGSTYYADSVKGRFTISRDNEKNTVYLQMNSLKPEVTAVYYWAKRQASYTQHRKGRGDYWGQGTQVTVSS | low polyreactivity
25 | QVQLVESGGGLVQAGGSLRLSCAASGRIFPYYAMGWYRQAPGKERELVAAISYSGGRTYYADSVKGRFTISRDNAKNTVYLQMNSLKPEDTAVYYCSAVVYLGYEYDYWGQGTQVTVSS | low polyreactivity
26 | QVQLVESGGGLVQAGGSLRLSCAASGRIFPYYTMGWYRQAPGKERELVATITTGGSTNYADSVKGRFTISRDNAENTVYLQMNSLKPEDTAVYYCNNDGVVVGRFTGPQEYDYWGQGTQVTVSS | low polyreactivity
27 | QVQLVESGGGLVQAGGSLRLSCAASGRIFQANAKGWYRQAPGKERELVAAINSGDSTYYADSVKGRFTISRDNAKNTVYLQMNSLKPEDTAVYYCAADAVFQYYTYYYWGQGTQVTVSS | low polyreactivity
28 | QVQLVESGGGLVQAGGSLRLSCAASGRIFQAYAMGWYRQAPGKERELVAAISRSGGGTYYADSVKGRFTISRDNAKNTVYLQMNCLKPEDTAVYYCNARGSTARGRGYWGQGTQVTVSS | high polyreactivity
29 | QVQLVESGGGLVQAGGSLRLSCAASGRIFQDYAMGWYRQAPGKERELVAAITWSGGRTYYADSVKGRFTISRDNAKNTVYLQMNSLKPEDTAVYYCNRLTQSRLYYGPREYYYWGQGTQVTVSS | high polyreactivity
30 | QVQLVESGGGLVQAGGSLRLSCAASGRIFQDYAMGWYRQPPGKERELVAAISSSGVRTYYADSVKGRFTISRDNAKNTVYVQMNSLKPEDTAVYYCATGYIFRYRQSAYVYWGQGTQVTVSS | high polyreactivity
31 | QVQLVESGGGLVQAGGSLRLSCAASGRIFQGFAMGGYRQAPGKERELVAAISSGGRTYYADSVKGRFTISRDNAKNTVYLQMNSLKPEDTAVYYCAARSPKANGLQRFDYWGQGSQVTVSS | high polyreactivity
32 | QVQLVESGGGLVQAGGSLRLSCAASGRIFQGYAMGWYRQAPGKERELVAAISYRGASTYYADSVKGRFTISRDNAKNTVYLQMNSLKPEDTAVYYCAKVTPTSTRGHDYWGQGTQVTVSS | low polyreactivity
33 | QVQLVESGGGLVQAGGSLRLSCAASGRIFQGYAMGWYRQAPGKERELVARITSGSNTNYADSVKGRFTISRDNAKNTVYLQMNSLKPEDTAVYYCAKEPVGSVRYGRFQQDDYWGQGTQVTVSS | low polyreactivity
34 | QVQLVESGGGLVQAGGSLRLSCAASGRIFQGYAMGWYRQAPGKERELVASIRTGGTTNYADSVKGRFTISRDNAKNTVYLQMTRLKPEDNAVYYCNSGYYSYYGRYYYWGQGTQVTVSS | high polyreactivity
35 | QVQLVESGGGLVQAGGSLRLSCAASGRIFQGYVMGWYRQAPGKERELVAAITTGGSTYYADSVKGRFTISRDNAKNTVYLQMNSLKPEDTAVYYCAAKPTRSRKIYEYWGQGTQVTVSS | low polyreactivity
36 | QVQLVESGGGLVQAGGSLRLSCAASGRIFQGYVMGWYRQAPGKERELVAAITTGGSTYYADSVKGRFTISRDNAKNTVYLQMNSLKPEDTAVYYCYAVVYVSGYNPYIFGYWGQGTQVTVSS | low polyreactivity
37 | QVQLVESGGGLVQAGGSLRLSCAASGRIFQKNAMGWYRQAAGKERELVAAISGSGSTTNYADSVKGRFTISRDNAKNTVYLQMNSLKPEDTAVYYCATGKRGVSGRGYRYVDYDYWGQGTQVTVSS | high polyreactivity
38 | QVQLVESGGGLVQAGGSLRLSCAASGRIFQKYAMGWYRQAPGKERELVAAITTSGGSTYYADSVKGRFTISRDNAKNTVYLQMNSLKPEDTAVYYCAAKSTLSKEGYWGQGTHVTVSS | high polyreactivity
39 | QVQLVESGGGLVQAGGSLRLSCAASGRIFQLYTMGWYRQAPGKERELVAAITSGTSTSYADSVKGRFTISRDNAKNTVYLQMNSLKPEDTAVYYCNKGSVSYSSVFVPYESDYWGQGTQVTVSS | low polyreactivity
40 | QVQLVESGGGLVQAGGSLRLSCAASGRIFQPNAMGWYRQATGNERELVAAISSSGGRTYYADSVKGRFTISRDNAKNTVYLQMNSLKPEDTAVYYCNAGGYRYRSYDYWGQGNQVTVSS | high polyreactivity
41 | QVQLVESGGGLVQAGGSLRLSCAASGRIFQPYAMGWYRPAPGKERELVAVITSGGSTNYADSVKGRFTISRDNAKNTVYLQMNSLKPEDTAVYYCNAVRTVNDYHYDYWGQGTQVTVSS | high polyreactivity
42 | QVQLVESGGGLVQAGGSLRLSCAASGRIFQPYAMGWYRQAPGKERELVAAITRRAGSTYYADSVKGRFTISRDNAKNTVYLQMNSLKPEDTAVYYCAARGLYWAYEMEYWGQGTQVTVSS | low polyreactivity
43 | QVQLVESGGGLVQAGGSLRLSCAASGRIFQRYAMGWYRQAPGKERELVAVITKRGGNTYYADSVKGRFTISRDNAKNTVYLQMNSLKPEDTAVYYCATRSGRSTGDYWGQGTQVTVSS | high polyreactivity

Source: the nanobody polyreactivity screen of Harvey et al. (2022)
